Substitutions are numbered along the chain they refer to. Blank lines part the entries; values can stand above or below the binder they belong to.
Assays:
[1] = molecular target: T1, rHuman IGF-1 sR (insulin-like growth factor-1 soluble receptor), CF (R&D Systems Cat#391-GR) (human, UniProt P08069 31-932); experiment: ECL (MSD multi-spot), antigen on plate, Fab 50 nM
T1 construct: Bought soluble receptor; also called IGF-R1

[2] = molecular target: T2, rHuman P-Cadherin/Fc Chimera, CF (R&D Systems Cat#861-PC) (human, UniProt P22223 108-654); experiment: ECL (MSD multi-spot), antigen on plate, Fab 50 nM
T2 construct: Bought Fc chimera; also called CDH3; not shown: Fc of the bought chimera

[3] = molecular target: T3, Recombinant Human DLL4 (R&D Systems Cat#1506-D4/CF) (human, UniProt Q9NR61 27-524); experiment: ECL (MSD multi-spot), antigen on plate, Fab 50 nM
T3 construct: Bought recombinant protein; also called delta-like protein 4

[4] = molecular target: T4, rHuman ErbB2/Fc Chimera, CF (R&D Systems Cat#1129-ER) (human, UniProt P04626 23-652); experiment: ECL (MSD multi-spot), antigen on plate, Fab 50 nM
T4 construct: Bought Fc chimera; also called HER2/neu; not shown: Fc of the bought chimera

[5] = molecular target: T5, rHuman EGF R/Fc Chimera, CF (R&D Systems Cat#344-ER) (human, UniProt P00533 25-645); experiment: ECL (MSD multi-spot), antigen on plate, Fab 50 nM
T5 construct: Bought Fc chimera; also called ErbB-1; not shown: Fc of the bought chimera

[6] = molecular target: T6, rHuman CD44/Fc Chimera, CF (R&D Systems Cat#3660-CD) (human, UniProt P16070 21-220); experiment: ECL (MSD multi-spot), antigen on plate, Fab 50 nM
T6 construct: Bought Fc chimera; not shown: Fc of the bought chimera

[7] = molecular target: T7, rHuman P-Cadherin/Fc Chimera, CF (R&D Systems Cat#861-PC) (human, UniProt P22223 108-654); experiment: MSD ECL multi-spot plate, antigen immobilized; Fab 1.6 nM; blank spot 565;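 further: blank spot per well as comparator with Hit at signal to blank ratio of 4 or more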
T7 construct: Purchased Fc chimera; not shown: Fc portion of the purchased chimera

[8] = molecular target: T8, rHuman Erythropoietin R/Fc Chimera, CF (R&D Systems Cat#963-ER) (human, UniProt P19235 25-250); experiment: as above
T8 construct: Purchased Fc chimera; also called EPO R/Fc; Epo R; not shown: Fc portion of the purchased chimera
T8 sequence: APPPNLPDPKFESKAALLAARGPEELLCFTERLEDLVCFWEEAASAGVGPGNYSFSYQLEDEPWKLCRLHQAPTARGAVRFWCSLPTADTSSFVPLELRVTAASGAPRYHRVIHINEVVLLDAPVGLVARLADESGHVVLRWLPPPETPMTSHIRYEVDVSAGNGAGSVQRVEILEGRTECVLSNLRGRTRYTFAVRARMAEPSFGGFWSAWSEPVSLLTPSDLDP

[9] = molecular target: T9, Recombinant Human DLL4 (R&D Systems Cat#1506-D4/CF) (human, UniProt Q9NR61 27-524); experiment: as above
T9 construct: Purchased recombinant protein; also called delta-like protein 4

[10] = molecular target: T10, rHuman HGF R/c-MET/Fc Chimera, CF (R&D Systems Cat#358-MT/CF) (human, UniProt P08581 25-932); experiment: as above
T10 construct: Purchased Fc chimera; also called HGF R/Fc; not shown: Fc portion of the purchased chimera

[11] = molecular target: T11, rHuman Notch-1/Fc Chimera, CF (R&D Systems Cat#3647-TK) (human, UniProt P46531 19-526); experiment: as above
T11 construct: Purchased Fc chimera; not shown: Fc portion of the purchased chimera

[12] = molecular target: T12, rHuman Erythropoietin R/Fc Chimera, CF (R&D Systems Cat#963-ER) (human, UniProt P19235 25-250); experiment: ECL (MSD Multi-Spot) binding assay, antigen spotted on plate; Fab 17 nM; blank spot 143;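 further: blank spot per well as comparator with Hit at signal to blank ratio of 4 or more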
T12 construct: Bought Fc chimera; also called EPO R/Fc; Epo R; Fc part of the bought chimera not given
T12 sequence: T8 sequence

[13] = molecular target: T13, Recombinant Human DLL4 (R&D Systems Cat#1506-D4/CF) (human, UniProt Q9NR61 27-524); experiment: as above
T13 construct: Bought recombinant protein; also called delta-like protein 4; rHuman DLL4

[14] = molecular target: T14, rHuman ErbB2/Fc Chimera, CF (R&D Systems Cat#1129-ER) (human, UniProt P04626 23-652); experiment: as above
T14 construct: Bought Fc chimera; also called HER2/neu; human epidermal growth factor 2 receptor; Fc part of the bought chimera not given

[15] = molecular target: T15, rHuman EGF R/Fc Chimera, CF (R&D Systems Cat#344-ER) (human, UniProt P00533 25-645); experiment: as above
T15 construct: Bought Fc chimera; also called epidermal growth factor receptor; Fc part of the bought chimera not given

[16] = molecular target: T16, rHuman Notch-1/Fc Chimera, CF (R&D Systems Cat#3647-TK) (human, UniProt P46531 19-526); experiment: as above
T16 construct: Bought Fc chimera; Fc part of the bought chimera not given

[17] = molecular target: T17, rHuman CD44/Fc Chimera, CF (R&D Systems Cat#3660-CD) (human, UniProt P16070 21-220); experiment: as above
T17 construct: Bought Fc chimera; Fc part of the bought chimera not given

[18] = molecular target: T18, rHuman IGF-1 sR (IGF-1 sR), CF (R&D Systems Cat#391-GR) (human, UniProt P08069 31-932); experiment: as above
T18 construct: Bought soluble receptor; also called insulin-like growth factor-1 soluble receptor; IGF-R1

ECL signal [1]: 399 ECL signal
ECL signal [2]: 470 ECL signal
ECL signal [3]: 201000 ECL signal
ECL signal [4]: 470 ECL signal
ECL signal [5]: 489 ECL signal
ECL signal [6]: 345 ECL signal
B1: Fab VH1-46_IGHD6-6*01_IGHJ1*01_S102A_S103P_S104Y_H111Y & L6_IGKJ1*01 (Fab, V domains shown)
VH: QVQLVQSGAEVKKPGASVKVSCKASGYTFTSYYMHWVRQAPGQGLEWMGIINPSGGSTSYAQKFQGRVTMTRDTSTSTVYMELSSLRSEDTAVYYCAREEYAPYSAEYFQYWGQGTLVTVSS
VL: not shown
notes: Fab made in E. coli; The heavy chain also carries CH1 with Flag and His tags from Plasmid A, and the light chain carries kappa CL from Plasmid C

ECL signal [7]: 811 ECL signal
ECL signal [8]: 899 ECL signal
ECL signal [9]: 2420 ECL signal
ECL signal [10]: 1440 ECL signal
ECL signal [11]: 816 ECL signal
B2: Fab VH5-51_IGHD5-18*01>3_IGHJ4*01_G100K & V3-4_IGLJ1*01 (Fab, V domains shown)
VH: EVQLVQSGAEVKKPGESLKISCKGSGYSFTSYWIGWVRQMPGKGLEWMGIIYPGDSDTRYSPSFQGQVTISADKSISTAYLQWSSLKASDTAMYYCARRKYSYGYDYFDYWGQGTLVTVSS
VL: QTVVTQEPSFSVSPGGTVTLTCGLSSGSVSTSYYPSWYQQTPGQAPRTLIYSTNTRSSGVPDRFSGSILGNKAALTITGAQADDESDYYCVLYMGSGISYVFGTGTKVTVL
notes: It was expressed as a Fab: CH1 with tags from Plasmid A and lambda CL from Plasmid E; also called Fab No. 22

ECL signal [12]: 620
ECL signal [13]: 7160
ECL signal [14]: 1030
ECL signal [15]: 805
ECL signal [16]: 558
ECL signal [17]: 518
ECL signal [18]: 872
B3: Fab VH5-51_IGHD5-18*01>3_IGHJ4*01 & V3-4_IGLJ1*01 (Fab, V domains shown)
VH: B2 VH with K100G
VL: B2 VL
notes: Tested as a Fab made in E. coli; also called IGHV5-51*03
